According to article PMC7805551:

Target: chicken MHF complex (MHF1/MHF2 heterotetramer) (chicken) (UniProt E1BSW7)
Test: native gel or EMSA; 2 mg/ml FANCM–MHF or MHF mixed 1:1 with 10 mM Tris–HCl pH 8 or 10–60% MPD, 20°C for 60 min; 6% polyacrylamide TBE gel, 0.5x TBE, 4°C; bands cut out and analysed by SDS–PAGE; at 30% MPD a smeared band at the position of MHF

percent of MHF without FANCM: 3%
Substance: chicken FANCM (MHF interaction region, amino acids 660–804) (from UniProt A0A1D5PRR9 660-804) (domain or fragment)
